Biological target: T1, CzcR (His6-CzcR) (Pseudomonas aeruginosa PAO1?) (UniProt Q9RLJ1)
T1 sequence: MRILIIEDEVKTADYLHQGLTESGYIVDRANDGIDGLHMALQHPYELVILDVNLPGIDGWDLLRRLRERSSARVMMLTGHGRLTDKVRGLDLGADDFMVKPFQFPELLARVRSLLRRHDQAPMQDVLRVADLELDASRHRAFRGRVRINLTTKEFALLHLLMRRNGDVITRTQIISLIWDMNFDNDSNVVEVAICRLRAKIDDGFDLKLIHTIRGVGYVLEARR
Experiment: EMSA

Sequence	binding
GAATCCACCTGAAACCCACGCCCAGCAAGGCCTATAGCACTAATCACAGACGCCCTTGACCTCAACTTAACTTGAGGTTTTATAGTCCCCGCTGCGGTCATACCGCCCCGTTTCCCCAGGACCACGAACCGCCCCCACGGCCGCTTCGCGGCGCCGGATGGCGACCAGCACAAGGAACGACCCATGCAGCGCTTC (double strand) [mexGHI-opmD promoter probe (PmexG)]	binds
GATAACCGGCCATCGAGCTAAAACGTTTCAGGTGTTTTCACGCGAGGCTTTCGGACGTTTACAAACACCTATGAATGTAAGTATTTTGCCTGCCTTCTTCGAGCCGGTGCAGCGCCTTCACGCTGCATCGGCCGCTTTCGCTCATGAGGACAACGCTATGCAACGAAC (double strand) [mexAB-oprM promoter probe (PmexA)]	binds
GCAACCGTTCGGAACATTCTTCCCGTCGGGGGTAGGCGAGCGACTTGCCCTGTGGAATAATACTGTCTACTTATACAGTTGTTCGTGGCCGTCCGGCCGCCCTGACTTCGCGAGGACTTCAATGGA (double strand) [recA promoter fragment (PrecA)]	no binding

— publication PMC10581170
